Assay results published in article PMC4917244.

How the values were obtained:
[1] = target: T1, Ros1WOPR-His (Ustilago maydis (FB1?)) (UniProt A0A0D1BVT7); test: EMSA
T1 sequence: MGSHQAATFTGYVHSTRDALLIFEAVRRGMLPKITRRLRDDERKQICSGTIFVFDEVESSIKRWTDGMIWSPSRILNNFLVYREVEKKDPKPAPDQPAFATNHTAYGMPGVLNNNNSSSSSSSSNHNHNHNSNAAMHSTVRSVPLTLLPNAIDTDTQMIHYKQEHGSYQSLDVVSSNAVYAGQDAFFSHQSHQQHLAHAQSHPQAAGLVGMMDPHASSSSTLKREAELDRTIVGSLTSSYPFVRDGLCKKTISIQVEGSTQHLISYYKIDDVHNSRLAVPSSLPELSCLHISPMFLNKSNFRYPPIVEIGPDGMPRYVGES

[2] = target: T1, Ros1WOPR-His (Ustilago maydis (FB1?)); test: competition EMSA

Sequence | binding [1] | binding [2]
CGCCAGAGACAAGTACTGTTCCCAATTCGGAGCTTCGCCGTGAACCACGAATTCATGCATTTCCATATTGGCAAAATATTAAAAAATTGAGGGTTTTGGCGTTGGCCTTTTGAGAGTTTATTTTAGATTTAATTAAGTGATTATGAGGATGATTCTTTTTCTTCATCTTCCTGTAACCGTCACCTGCCACGCTTGCCTAGACGCAGCAGTATCCACTCCGTAGGCGTATGCTATTGT (double strand) [WT-probe (ros1 promoter)] | binds | 
CGCCAGAGACAAGTACTGTTCCCAATTCGGAGCTTCGCCGTGAACCACGAATTCATGCATTTCCATATTGGCAAAATATTAAAAAATTGAGGGTTTTGGCGTTGGCCTTTTGAGAGTTTATTTTAGATTTAATTAAGTGATTATGAGGATGATTCTTTTTCTTCATCTTCCTGTAACCGTCACCTGCCACGCTTGCCTAGACGCAGCAGTATCCACTCCGTAGGCGTATGCTATTGT (double strand) [WT-probe unlabeled competitor] |  | binds
